Source: US20250145722A1, “ANTI-GAL3 ANTIBODIES AND METHODS OF USE” (TrueBinding, Inc., priority 2020, published 2025)

B1: F849C.8D12: anti-Gal3 antibody (antibody, V domains shown)
VH: EVQLQQSGPELVKPGSSVKISCKASRYTFTDYNMDWVKQSHGKRLEWIGYIYPNNGGTGYNQKFKGKATLTVDKSSSTAYMELRSLTSEDSAVYYCARSYYDGSYDAMDYWGQGTSVTVSS
VL: DIQMTQTTSSLSASLGDRVTISCSASQGISNYLNWYQQKPDGTVKLLIYYTSSLHSGVPSRFSGSGSGTDYSLTISNLEPEDIATYYCQQYSKLPRTFGGGTKLEI
modifications: misc_feature 1..363 849.8D12 VH nucleic acid; misc_feature 1..318 849.8D12 VL nucleic acid
notes: anti-Gal3 antibody
B2: 846.2B11: anti-Gal3 antibody (antibody, V domains shown)
VH: QVQLQQSGPELVRPGALVKISCKASGYTFTSYDINWVKQRPGQGLEWIGWIYPGDGSTKYNEKFKGKATLTADKSSSTAYMQLSSLTSENSAVYFCAREAASNAMDYWGQGTSVTVSS
VL: DIVLTQSPASLGVSLGQRATISCRASKSVSTSGYSYMHWYQQKPGQPPKLLIYLASILESGVPARFSGSGSGTDFTLNIHPVEEEDAAIYYCQHSRELPLTFGAGTKLELK
modifications: misc_feature 1..354 846.2B11 VH nucleic acid; misc_feature 1..333 846.2B11 VL nucleic acid
notes: anti-Gal3 antibody

Columns and labels:
[1] = target: T1, interaction of Gal3 and APP695 (Homo sapiens, UniProt P17931); experiment: Gal3-APP695 blocking ELISA; format: binding
T1 construct: purchased R&D Systems; QCB200349; QCB200352; host or cells: mammalian (R&D 8259-GA) or E. coli (QCB200349)
Experimental: To identify Gal3-targeted antibodies with the ability to block the interaction of Gal3 and APP695, purified Gal3 and APP695 proteins were incubated in the presence (or absence) of various Gal3-targeted or control antibodies, or without antibody, and protein interaction was evaluated by ELISA.
Human GAL3 (mammalian, R&D Systems, 8259-GA; E-coli derived, untagged, TrueBinding, QCB200349; or His-tagged, TrueBinding, QCB200352) was diluted in PBS (Corning, 21-030-CM) to a concentration of 4 μg/mL and added to the wells of a 96-well ELISA plate (Thermo Fisher, 44-2404-21). After incubating the plate at 4° C. overnight, the plate was washed three times with PBST (PBS with 0.05% Tween 20 [VWR, 0777]) and then blocked for an hour with 2% BSA (EMD Millipore, 126609) in PBST at room temperature with gentle rocking. Human APP695 (R&D Systems, 9937-AP) was biotinylated with EZ Link Sulfo-NHS-LC-Biotin (ThermoFisher Scientific, A39257) and desalted using a Zeba Spin Desalting Column (ThermoFisher Scientific, 89882), following the manufacturer's instructions. […] The reaction was stopped with 1M HCl (JT Baker, 5620-02) and read using a plate reader (Molecular Devices) at absorbance of 450 nm. Percent blockade of Gal3-APP695 interaction was calculated as the fraction of signal obtained in the absence of antibody with the background signal subtracted.

[2] = target: T2, human Gal3 (Homo sapiens, UniProt P17931); experiment: Epitope binning assay, sandwich format, SPR-based Carterra LSA; conditions: competitive binding for hGAL3
T2 construct: purchased AcroBio (Acro Biosystems) GA3-H5129
Experimental: First, the purified antibodies were diluted to 10 μg/ml concentration in 10 mM NaOAc (pH 5.0) and then were covalently coupled via amine group to HC200M chip activated by EDC and S-NHS to immobilize antibodies to different positions of a 384-spot array. One hundred thirty-eight binning cycles were run on the array of immobilized antibodies. In each cycle, first, human Gal3 (AcroBio GA3-H5129) was injected over the entire array to bind to different antibodies (primary antibody), followed by one antibody (secondary antibody) selected among the panel of 150 anti-GAL3 antibodies tested. At the end of each cycle, the array was regenerated by 10 mM Glycine (pH 2.0) to remove bound antigen and secondary antibody from the array. The data analysis was done using the Epitope software by CarterraBio.

T1 sequence (P17931 2-250 limits assumed): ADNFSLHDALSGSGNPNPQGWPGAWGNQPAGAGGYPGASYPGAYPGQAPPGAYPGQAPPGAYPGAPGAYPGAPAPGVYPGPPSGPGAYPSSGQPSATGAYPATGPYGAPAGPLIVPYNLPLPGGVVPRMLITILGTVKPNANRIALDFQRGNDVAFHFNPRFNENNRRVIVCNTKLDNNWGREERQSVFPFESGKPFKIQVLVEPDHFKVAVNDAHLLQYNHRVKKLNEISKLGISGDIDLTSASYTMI
T2 sequence (P17931 whole entry): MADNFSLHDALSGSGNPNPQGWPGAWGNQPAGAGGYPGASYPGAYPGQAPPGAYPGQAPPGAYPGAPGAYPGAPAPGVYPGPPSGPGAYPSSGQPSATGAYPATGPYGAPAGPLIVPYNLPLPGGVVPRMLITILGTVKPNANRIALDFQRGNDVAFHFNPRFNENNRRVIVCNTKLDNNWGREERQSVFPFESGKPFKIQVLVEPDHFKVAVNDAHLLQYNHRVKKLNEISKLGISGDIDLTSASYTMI

Molecule	Blocking of Gal3-APP695 binding (in words) [1]	Epitope bin [2]
B1	did not impact	
B2		bin 16
